From US20220033501A1 (SHANGHAI PHARMAEXPLORER, published 2022) come the findings set out here.

In assay [1] the target is T1, human TIM-3 extracellular domain protein with hFc tag (hTIM-3-hFc) (human, UniProt Q8TDQ0 22-200).
T1 construct: not shown: human IgG Fc fragment (hFc) of the pCpC vector
T1 sequence: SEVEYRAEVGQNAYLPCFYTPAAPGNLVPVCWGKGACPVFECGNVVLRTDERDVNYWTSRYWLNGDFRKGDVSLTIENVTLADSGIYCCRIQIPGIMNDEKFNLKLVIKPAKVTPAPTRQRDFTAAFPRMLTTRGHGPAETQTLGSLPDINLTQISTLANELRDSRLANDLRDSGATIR
The assay can be described thus: ELISA, coated human TIM-3 ECD protein, 6.6667 nM antibody.

Assay [2] addresses T2, murine TIM-3 extracellular domain protein with hFc tag (mTIM-3-hFc) (mouse, UniProt Q8VIM0 29-191).
T2 construct: also called mouse TIM-3 extracellular domain protein; not shown: human IgG Fc fragment (hFc) of the pCpC vector
T2 chain: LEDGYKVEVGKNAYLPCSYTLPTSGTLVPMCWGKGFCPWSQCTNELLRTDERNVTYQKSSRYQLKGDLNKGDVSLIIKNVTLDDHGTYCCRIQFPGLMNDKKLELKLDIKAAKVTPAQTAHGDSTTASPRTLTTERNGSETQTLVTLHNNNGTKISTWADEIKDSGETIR
The assay can be described thus: ELISA, coated mouse TIM-3 ECD protein, 66.667 nM antibody. (An ELISA detects its analyte on a solid surface through an enzyme-linked reagent.)

The target of assay [3] is T2, murine TIM-3 extracellular domain …. The assay can be described thus: ELISA, coated mouse TIM-3 ECD protein, 6.6667 nM antibody.
Assay [4] addresses T3, monkey TIM-3 extracellular domain protein with hFc tag (cTIM-3-hFc) (monkey).
T3 construct: not shown: human IgG Fc fragment (hFc) of the pCpC vector
T3 chain: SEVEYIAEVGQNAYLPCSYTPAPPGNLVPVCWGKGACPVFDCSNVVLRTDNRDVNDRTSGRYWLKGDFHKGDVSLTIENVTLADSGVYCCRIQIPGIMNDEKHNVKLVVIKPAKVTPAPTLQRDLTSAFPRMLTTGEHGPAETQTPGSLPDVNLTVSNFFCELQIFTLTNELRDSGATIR
Description: ELISA, coated monkey TIM-3 ECD protein, 0.0007 nM antibody.

Assay [5] addresses T1, human TIM-3 extracellular domain …. The assay can be described thus: ELISA, coated human TIM-3 ECD protein, 0.0667 nM antibody.
In assay [6] the target is T4, murine TIM-3 protein with hFc tag (mTIM-3-hFc protein) (mouse; human, UniProt Q8VIM0 29-191).
T4 construct: Made in HEK293 cells; also called mouse TIM-3 extracellular domain protein; not shown: human IgG Fc fragment (hFc) of the pCpC vector
T4 chain: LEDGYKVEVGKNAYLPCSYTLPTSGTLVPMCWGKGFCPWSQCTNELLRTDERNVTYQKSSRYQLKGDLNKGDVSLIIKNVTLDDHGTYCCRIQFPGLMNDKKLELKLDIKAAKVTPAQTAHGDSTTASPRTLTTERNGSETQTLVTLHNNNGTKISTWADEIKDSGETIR
The assay can be described thus: ELISA, coated mTIM-3-hFc; antibody 0 nM (blank). The source says:
(§1) The amino acid sequence 22-200 of the extracellular domain of the human TIM-3 protein described in the step of Example 1 (as shown in SEQ ID NO. 71 in the sequence listing) was cloned into a pCpC vector having a human IgG Fc fragment (hFc), and transfected into HEK293 cells. The cell culture medium was collected, and purified to obtain the human TIM-3 protein with hFc tag (herein referred to as hTIM-3-hFc protein). The amino acid sequence 22-201 of the extracellular domain of the monkey TIM-3 protein (as shown in SEQ ID NO. 72 in the sequence listing) was cloned into a pCpC vector having a human IgG Fc fragment (hFc), and transfected into HEK293 cells. The cell culture medium was collected, and purified to obtain the monkey TIM-3 protein with hFc tag (herein referred to as cTIM-3-hFc protein). […] The cell culture medium was collected, and purified to obtain the murine TIM-3 protein with hFc tag (herein referred to as mTIM-3-hFc protein). Purified human, monkey, and mouse TIM-3 extracellular domain proteins (hTIM-3-hFc, cTIM-3-hFc, and mTIM-3-hFc) were diluted with PBS to a final concentration of 1.0 μg/ml and then added to a 96-well ELISA plate with 100 μl per well. The plate was sealed with plastic film and incubated overnight at 4° C. The plate was washed 4 times with the plate washing solution (PBS+0.01% Tween20) on the next day, and added with the blocking solution (PBS+0.01% Tween20+1% BSA) and sealed at room temperature for 1-2 hours. The blocking solution was poured out. 50-100 μl of the antibody sample to be tested was added to each well. The plate was incubated at 37° C. for 1-2 hours, and washed 2-3 times with plate washing solution (PBS+0. 01% Tween20). HRP (horseradish peroxidase) labeled secondary antibody was added. The plate was incubated at 37° C. for 1-2 hours, and washed 2-3 times with plate washing solution (PBS+0. 01% Tween20). […] of TMB substrate was added to each well. After incubated at room temperature for 15-30 minutes, the plate was added with […] stop solution (1.0N HCl) to each well. An ELISA plate reader (TiterMax 384plus, Molecular Device) was used to read the A450 nm value.

For assay [7], the target named is T5, monkey TIM-3 protein with hFc tag (cTIM-3-hFc protein) (monkey; human).
T5 construct: Made in HEK293 cells; also called monkey TIM-3 extracellular domain protein; not shown: human IgG Fc fragment (hFc) of the pCpC vector
T5 chain: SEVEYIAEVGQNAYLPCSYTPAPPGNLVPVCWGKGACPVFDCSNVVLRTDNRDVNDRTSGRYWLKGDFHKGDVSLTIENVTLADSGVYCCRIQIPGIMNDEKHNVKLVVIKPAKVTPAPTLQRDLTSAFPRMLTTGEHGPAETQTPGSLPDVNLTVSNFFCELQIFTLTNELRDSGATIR
The assay can be described thus: ELISA, coated cTIM-3-hFc; antibody 0.6667 nM.
Source text: as §1

For assay [8], the target named is T5, monkey TIM-3 protein with hFc tag …. Description: ELISA, coated cTIM-3-hFc; antibody 0.0001 nM.
Source text: as §1

B1: 215A8F2 fully human TIM-3 antibody (human IgG4, kappa) (antibody, V domains shown)
VH: QVQLQQWGAGLLKPSETLSLTCTVYGGSFSGYYWNWIRQPPGKGLEWLGEINHSGSTNYNPSLKRRVTISVDTSKNQFSLKLSSVTAADTAVYYCARVYYYGPFDFWGQGTLVTVSS
VL: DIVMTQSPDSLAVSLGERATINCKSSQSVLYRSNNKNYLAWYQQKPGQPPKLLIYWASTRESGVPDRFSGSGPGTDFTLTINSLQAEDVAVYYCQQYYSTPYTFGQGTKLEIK
As to B1, the OD450 amounted to 2.86 in assay [1]; 1.08 in assay [2]; 0.38 in assay [3]; 0.15 in assay [4]; 1.29 in assay [5].

B2: 215A8F2 (TIM-3 antibody purified from hybridoma, chimeric antibody of Example 2) (antibody, V domains shown)
VH: QVQLQQWGAGLLKPSETLSLTCTVYGGSFSGYYWNWIRQPPGKGLEWLGEINHSGSTNYNPSLKRRVTISVDTSKNQFSLKLSSVTAADTAVYYCARVYYYGPFDFWGQGTLVTVSS
VL: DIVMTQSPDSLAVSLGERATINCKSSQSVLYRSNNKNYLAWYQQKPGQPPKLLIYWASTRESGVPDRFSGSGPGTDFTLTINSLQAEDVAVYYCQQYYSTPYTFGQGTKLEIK
notes: From hybridoma of Harbour H2L2 transgenic mice: human variable regions, rat constant regions
On to B2, for which the OD450 is 0.63 in assay [6], 3.26 in assay [7] and 0.52 in assay [8].

B3: 34B6D8 (TIM-3 antibody purified from hybridoma, chimeric antibody of Example 2) (antibody, V domains shown)
VH: EVQLVESGGGLVQPGGSLRLSCAASGFTFSTYWMTWVRQAPGKRLEWVANIKQGGGDKYYVDSVKGRFTISTDNAKNSLYLQMNSLRAEDTAVYYCARGSNWFDPWGQGTLVTVSS
VL: EIVMTQSPATLSMSPGERATLSCRASQSVYDNLAWYQQKPGQAPRLLIYGASTRATGIPARFSGSGSGTEFTLTISSLQSEDFALYYCQQYTHWPITFGQGTRLEIK
notes: as for B2
Take B3: the OD450 in assay [6] was found to be 0.66; in assay [7], 3.44; in assay [8], 0.57.

B4: 7A4F10 fully human TIM-3 antibody (human IgG4, kappa) (antibody, V domains shown)
VH: EVQLLESGGGLVQPGGSLRLSCAASGFTFRTHLISWVRQAPGKGLEWVAAITGSGGSTYYADSVKGRFIISRDNSKNTLFLQMNSLRAEDTAVYYCAKDGGSGSYDDFWGQGTLVTVSS
VL: ETVLTQSPVTLSLSPGERATLSCRASQSVGSYLAWYQQKPGQAPRLLIYDASNRATGIPARFSGSGSGTDFTLTISSLEPEDFAVYYCQQRSNWPPTFGQGTKVEIK
As to B4, the OD450 worked out at 3.01 in assay [1]; 0.99 in assay [2]; 0.36 in assay [3]; 0.14 in assay [4]; 1.69 in assay [5].

B5: 7A4F10 (TIM-3 antibody purified from hybridoma, chimeric antibody of Example 2) (antibody, V domains shown)
VH: EVQLLESGGGLVQPGGSLRLSCAASGFTFRTHLISWVRQAPGKGLEWVAAITGSGGSTYYADSVKGRFIISRDNSKNTLFLQMNSLRAEDTAVYYCAKDGGSGSYDDFWGQGTLVTVSS
VL: ETVLTQSPVTLSLSPGERATLSCRASQSVGSYLAWYQQKPGQAPRLLIYDASNRATGIPARFSGSGSGTDFTLTISSLEPEDFAVYYCQQRSNWPPTFGQGTKVEIK
notes: as for B2
Turning to B5, the OD450 in assay [6] was 0.63; in assay [7], 1.35; in assay [8], 0.54.

B6: 57F4E5 fully human TIM-3 antibody (human IgG4, kappa) (antibody, V domains shown)
VH: EVQLVESGGGLVQPGGSLRLSCAASGFTFSSYWMSWVRQAPGKGLEWVANIKQDGSEKYYVDSVKGRFTISRDSAKNSLYLQMNSLRAEDTAMYFCARDSNFFDYWGQGTLVTVSS
VL: ETVMTQSPATLSVSPGERATLSCRASQSVSSNLAWYQRKPGQAPRLLIYFSSTRATGIPARFSGSGSGTEFTLTISSLQSEDFAVYYCQQYNNWPLTFGGGTKVEIK
As for B6, the OD450 in assay [1] worked out at 2.91; in assay [2], 1.55; in assay [3], 0.54; in assay [4] it was 0.18; in assay [5], 1.22.

B7: 134H3G6 (TIM-3 antibody purified from hybridoma, chimeric antibody of Example 2) (antibody, V domains shown)
VH: EVQLVESGGGLVQPGGSLRLSCAASGFTFSNSWMTWVRQAPGKGLEWVANIKQAGTEKYYVDSVKGRFTISRDNAKNSLYLQMNSLRAEDTAVYYCNSGSNYFDYWGQGTLVTVSS
VL: EIVMTQSPATLSVSPGERATLSCRARQNFYSNLAWYQQKPGQAPRLLIYGASTRATGIPARFSGSGSGTEFTLTISSLQSEDFAVYYCQQYNNWPLTFGGGTKVEIK
notes: as for B2
Turning to B7, the OD450 is 0.64 in assay [6], 1.22 in assay [7] and 0.54 in assay [8].

B8: 39E5H1 (TIM-3 antibody purified from hybridoma, chimeric antibody of Example 2) (antibody, V domains shown)
VH: EVQLVESGGGLVQPGGSLRLSCAASGFTFSSYWMSWVRQAPGKGLEWVANIKRGGSERYYVDSVKGRFTISGDNAKNSVYLQMNSLRAEDTAVYYCARGSNWFDPWGQGTLVTVSS
VL: ETVMTQSPAILSVSPGERATLSCRASQSVYSNLAWYQQKLGQAPRLLIYDASTRATGIPARFSGSGSGTEFTLTISSLQSEDFAVYYCQQYNNWPITFGQGTRLEIK
notes: as for B2
Regarding B8, the OD450 came to 0.62 in assay [6], 3.41 in assay [7] and 0.57 in assay [8].

B9: 134H3G6 fully human TIM-3 antibody (human IgG4, kappa) (antibody, V domains shown)
VH: EVQLVESGGGLVQPGGSLRLSCAASGFTFSNSWMTWVRQAPGKGLEWVANIKQAGTEKYYVDSVKGRFTISRDNAKNSLYLQMNSLRAEDTAVYYCNSGSNYFDYWGQGTLVTVSS
VL: EIVMTQSPATLSVSPGERATLSCRARQNFYSNLAWYQQKPGQAPRLLIYGASTRATGIPARFSGSGSGTEFTLTISSLQSEDFAVYYCQQYNNWPLTFGGGTKVEIK
Consider B9, for which the OD450 in assay [1] was 2.81; in assay [2], 0.94; in assay [3] it was 0.36; in assay [4] it was 0.15; in assay [5], 1.28.

B10: 57F4E5 (TIM-3 antibody purified from hybridoma, chimeric antibody of Example 2) (antibody, V domains shown)
VH: EVQLVESGGGLVQPGGSLRLSCAASGFTFSSYWMSWVRQAPGKGLEWVANIKQDGSEKYYVDSVKGRFTISRDSAKNSLYLQMNSLRAEDTAMYFCARDSNFFDYWGQGTLVTVSS
VL: ETVMTQSPATLSVSPGERATLSCRASQSVSSNLAWYQRKPGQAPRLLIYFSSTRATGIPARFSGSGSGTEFTLTISSLQSEDFAVYYCQQYNNWPLTFGGGTKVEIK
notes: as for B2
With B10, the values for the OD450 in assay [6], in assay [7] and in assay [8] were 0.64, 3.45 and 0.58, respectively.

B11: 18D2H2 (TIM-3 antibody purified from hybridoma, chimeric antibody of Example 2) (antibody, V domains shown)
VH: EVQLVESGGDLVQPGGSLRLSCAASGFTFSTYWMTWVRQAPGRGLEWVANIKQDGSAKYYVDSVKGRFTLSRDDAKNSLYLQMNSLRAEDTAVYYCARGSNWFDYWGQGTLVTVSS
VL: ETVMTQSPATLSVSPGERATLSCRANQNVYSNLAWYQQKPGQAPRLLIYDASTRATGFPARFSGSGSGTEFTLTISSLQSEDFAVYYCQQYNNWPLTFGGGTKVEIK
notes: as for B2
With B11, the OD450 worked out at 0.62 in assay [6], 1.89 in assay [7] and 0.53 in assay [8].
